Assay results as given in patent US20010044102, “ASSAYS AND REAGENTS FOR IDENTIFYING MODULATORS OF CDC25-MEDIATED MITOTIC ACTIVATION” (published 2001).

B1: MB3 (A3) mutant oligo (dsDNA)
DNA 1: ACTACAGACACCTGCCACCACACCCAA
DNA 2: TTGGGTGTGGTGGCAGGTGTCTGTAGT
modifications: [12]
B2: MB1 (A1) mutant oligo (dsDNA)
DNA 1: GGGCCTGCCAACTGCACCCCGCCCGGG
DNA 2: CCCGGGCGGGGTGCAGTTGGCAGGCCC
modifications: [11,12]
B3: MB2 (A2) mutant oligo (dsDNA)
DNA 1: GCACAAGACAACTGCTTAGCAAACGGG
DNA 2: CCCGTTTGCTAAGCAGTTGTCTTGTGC
modifications: [11,12]

Biological target: GST-C92 Myc/Max heterodimer (UniProt P01106;P61244 P01106:363-454,P61244:1-160)
Sequence (P01106 363-454, chain 1 of 2): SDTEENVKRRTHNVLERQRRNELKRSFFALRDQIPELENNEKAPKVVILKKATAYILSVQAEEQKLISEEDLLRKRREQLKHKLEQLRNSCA
Sequence (P61244 whole entry, chain 2 of 2): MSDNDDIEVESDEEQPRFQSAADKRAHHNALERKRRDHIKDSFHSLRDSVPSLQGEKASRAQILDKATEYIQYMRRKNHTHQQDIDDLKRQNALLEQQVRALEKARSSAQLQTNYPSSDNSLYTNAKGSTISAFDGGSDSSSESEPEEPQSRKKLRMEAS
Test: competition; mutant oligo did not compete
Conditions: tags: GST on Myc C-terminal 92 aa (C92Myc)
From the text: To test whether Myc/Max complexes could efficiently bind to the isolated sites, we performed electrophoretic mobility shift assays (EMSA) on each DNA fragment, confirming that they represent functional myc-binding elements in vitro. For instance, oligonucleotides, matching the Myc binding site from F1, F2 and from the second intron of the cdc25A (MB3) were also checked by EMSA. In this case, oligonucleotides corresponding to a wild type site and a single point mutant within the consensus sequence site were used to compete with the cdc25A sites. […] Similar results were obtained for MB2 and MB3.
For the identification of the Myc/Max binding sequences within the cdc25 genomic regions we utilized an affinity chromatography procedure, similar to immunoprecipitation procedures (Okamoto et al. (1994) EMBO J. 13:4816-4822). Briefly, cdc25 (A, B and C) genomic clones were digested with the Hinfl restriction endonuclease, end-labeled with p32 and further incubated with 10 ng of the GSTC92Myc/Max complexes in the binding buffer (Ayer et al. (1993) Cell 72:211-222), followed by incubation with 20 μl of glutathione sepharose for 30 min at 4° C. Isolated complexes were washed four times in the binding buffer, eluted with proteinase K digestion, treated with phenol/chloroform and further ethanol precipitated. Precipitated material was resuspended in 10-20 μl of TE and subjected to polyacrylamide gel (PAG) electrophoresis, followed by autoradiography. Total digests were treated the same way, except affinity chromatography on the glutathione beads, and run as a control on a gel on a parallel lane with the purified material. Electrophoretic mobility shift assays (EMSA) were done either with F1 or F2 fragments or with the synthetic oligonucleotides, corresponding to MB 1, MB2 or MB3 as described in the art, c. f., Ayer et al. (1993) Cell 72:211-222. Mutant oligonucleotides correspond to the same sequence as F1 and F2 with CATGTG changed to CAACTG (for A1 and A2) or CACGTG changed to CACCTG (for A3). CM-1 oligonucleotide has been described (Ayer et al. supra).

Binding result, no binding:
B1
B2
B3
